Like-named read-outs stand apart in the source and are kept apart here.
How the values were obtained:
SARS-CoV-2 RBD protein [1] = molecular target: T1, SARS-CoV-2 RBD protein (SARS-CoV-2, UniProt P0DTC2 319-541)
SARS-CoV-2 RBD protein [2] = molecular target: T1, SARS-CoV-2 RBD protein; remark: listed apart in the source
SARS-CoV-2 RBD protein [3] = molecular target: T1, SARS-CoV-2 RBD protein; test: competitive ELISA as for the GB Quads, ACE2 Ig coated
SARS-CoV-2 RBD protein [4] = molecular target: T1, SARS-CoV-2 RBD protein; remark: listed apart in the source
SARS-CoV-2 RBD protein [5] = molecular target: T1, SARS-CoV-2 RBD protein; test: indirect binding ELISA, CoV-2 RBD coated

B1: Q177 (VHH QB-GB-TD) (VHH)
VHH: QVQLQESGGGLVQAGGSLRLSCAASGRTFSEYAMGWFRQAPGKEREFVATISWSGGSTYYTDSVKGRFTISRDNAKNTVYLQMNSLKPDDTAVYYCAAAGLGTVVSEWDYDYDYWGQGTQVTVSS
IC50 (SARS-CoV-2 RBD protein [1]): 0.0649 nM

B2: Q178 (VHH QB-GB IgG, non-Quad format) (VHH)
VHH: QVQLQESGGGLVQAGGSLRLSCAASGRTFSEYAMGWFRQAPGKEREFVATISWSGGSTYYTDSVKGRFTISRDNAKNTVYLQMNSLKPDDTAVYYCAAAGLGTVVSEWDYDYDYWGQGTQVTVSS
IC50 (SARS-CoV-2 RBD protein [1]): 0.185 nM

B3: Q179 (VHH QB-GB Ig-TD) (VHH)
VHH: QVQLQESGGGLVQAGGSLRLSCAASGRTFSEYAMGWFRQAPGKEREFVATISWSGGSTYYTDSVKGRFTISRDNAKNTVYLQMNSLKPDDTAVYYCAAAGLGTVVSEWDYDYDYWGQGTQVTVSS
IC50 (SARS-CoV-2 RBD protein [1]): 0.0328 nM

B4: Q180/Q182 (VHH QB-GB Fab-like Ig, non-Quad format) (VHH)
heavy: not shown
light: QVQLQESGGGLVQAGGSLRLSCAASGRTFSEYAMGWFRQAPGKEREFVATISWSGGSTYYTDSVKGRFTISRDNAKNTVYLQMNSLKPDDTAVYYCAAAGLGTVVSEWDYDYDYWGQGTQVTVSSGGGGSGGGGSKRTVAAPSVFIFPPSDEQLKSGTASVVCLLNNFYPREAKVQWKVDNALQSGNSQESVTEQDSKDSTYSLSSTLTLSKADYEKHKVYACEVTHQGLSSPVTKSFNRGEC
IC50 (SARS-CoV-2 RBD protein [1]): 0.0778 nM

B5: Q181/Q182 (VHH QB-GB Fab-like Ig-TD) (VHH)
heavy: not shown
light: QVQLQESGGGLVQAGGSLRLSCAASGRTFSEYAMGWFRQAPGKEREFVATISWSGGSTYYTDSVKGRFTISRDNAKNTVYLQMNSLKPDDTAVYYCAAAGLGTVVSEWDYDYDYWGQGTQVTVSSGGGGSGGGGSKRTVAAPSVFIFPPSDEQLKSGTASVVCLLNNFYPREAKVQWKVDNALQSGNSQESVTEQDSKDSTYSLSSTLTLSKADYEKHKVYACEVTHQGLSSPVTKSFNRGEC
IC50 (SARS-CoV-2 RBD protein [1]): 0.0154 nM

B6: Q183/Q182 (VHH QB-GB Fab-like TD) (VHH)
heavy: QVQLQESGGGLVQAGGSLRLSCAASGRTFSEYAMGWFRQAPGKEREFVATISWSGGSTYYTDSVKGRFTISRDNAKNTVYLQMNSLKPDDTAVYYCAAAGLGTVVSEWDYDYDYWGQGTQVTVSSGGGGSGGGGSASTKGPSVFPLAPSSKSTSGGTAALGCLVKDYFPEPVTVSWNSGALTSGVHTFPAVLQSSGLYSLSSVVTVPSSSLGTQTYICNVNHKPSNTKVDKKVEPKSCDKTHTKKKPLDGEYFTLQIRGRERFEMFRELNEALELKDAQAGKEPG
light: QVQLQESGGGLVQAGGSLRLSCAASGRTFSEYAMGWFRQAPGKEREFVATISWSGGSTYYTDSVKGRFTISRDNAKNTVYLQMNSLKPDDTAVYYCAAAGLGTVVSEWDYDYDYWGQGTQVTVSSGGGGSGGGGSKRTVAAPSVFIFPPSDEQLKSGTASVVCLLNNFYPREAKVQWKVDNALQSGNSQESVTEQDSKDSTYSLSSTLTLSKADYEKHKVYACEVTHQGLSSPVTKSFNRGEC
IC50 (SARS-CoV-2 RBD protein [1]): 0.0312 nM

B7: Q184/Q182 (VHH QB-GB Fab-like mIg-TD) (VHH)
heavy: QVQLQESGGGLVQAGGSLRLSCAASGRTFSEYAMGWFRQAPGKEREFVATISWSGGSTYYTDSVKGRFTISRDNAKNTVYLQMNSLKPDDTAVYYCAAAGLGTVVSEWDYDYDYWGQGTQVTVSSGGGGSGGGGSASTKGPSVFPLAPSSKSTSGGTAALGCLVKDYFPEPVTVSWNSGALTSGVHTFPAVLQSSGLYSLSSVVTVPSSSLGTQTYICNVNHKPSNTKVDKKVEPKSCDKTHTAPELLGGPSVFLFPPKPKDTLMISRTPEVTCVVVDVSHEDPEVKFNWYVDGVEVHNAKTKPREEQYNSTYRVVSVLTVLHQDWLNGKEYKCKVSNKALPAPIEKTISKAKGQPREPQVYTLPPSRDELTKNQVSLTCLVKGFYPSDIAVEWESNGQPENNYKTTPPVLDSDGSFFLYSKLTVDKSRWQQGNVFSCSVMHEALHNHYTQKSLSLSPGKKKKPLDGEYFTLQIRGRERFEMFRELNEALELKDAQAGKEPG
light: QVQLQESGGGLVQAGGSLRLSCAASGRTFSEYAMGWFRQAPGKEREFVATISWSGGSTYYTDSVKGRFTISRDNAKNTVYLQMNSLKPDDTAVYYCAAAGLGTVVSEWDYDYDYWGQGTQVTVSSGGGGSGGGGSKRTVAAPSVFIFPPSDEQLKSGTASVVCLLNNFYPREAKVQWKVDNALQSGNSQESVTEQDSKDSTYSLSSTLTLSKADYEKHKVYACEVTHQGLSSPVTKSFNRGEC
IC50 (SARS-CoV-2 RBD protein [1]): 0.0342 nM

B8: Q185 (VHH QB-GB dimeric TD) (VHH)
VHH: QVQLQESGGGLVQAGGSLRLSCAASGRTFSEYAMGWFRQAPGKEREFVATISWSGGSTYYTDSVKGRFTISRDNAKNTVYLQMNSLKPDDTAVYYCAAAGLGTVVSEWDYDYDYWGQGTQVTVSS
IC50 (SARS-CoV-2 RBD protein [1]): 0.0237 nM | IC50 (SARS-CoV-2 RBD protein [2]): 0.0147 nM

B9: Q186/Q182 (VHH QB-GB Fab'-like TD, octavalent GB Quad) (VHH)
heavy: QVQLQESGGGLVQAGGSLRLSCAASGRTFSEYAMGWFRQAPGKEREFVATISWSGGSTYYTDSVKGRFTISRDNAKNTVYLQMNSLKPDDTAVYYCAAAGLGTVVSEWDYDYDYWGQGTQVTVSSGGGGSGGGGSASTKGPSVFPLAPSSKSTSGGTAALGCLVKDYFPEPVTVSWNSGALTSGVHTFPAVLQSSGLYSLSSVVTVPSSSLGTQTYICNVNHKPSNTKVDKKVEPKSCDKTHTCPPCPAPELLGGKKKPLDGEYFTLQIRGRERFEMFRELNEALELKDAQAGKEPG
light: QVQLQESGGGLVQAGGSLRLSCAASGRTFSEYAMGWFRQAPGKEREFVATISWSGGSTYYTDSVKGRFTISRDNAKNTVYLQMNSLKPDDTAVYYCAAAGLGTVVSEWDYDYDYWGQGTQVTVSSGGGGSGGGGSKRTVAAPSVFIFPPSDEQLKSGTASVVCLLNNFYPREAKVQWKVDNALQSGNSQESVTEQDSKDSTYSLSSTLTLSKADYEKHKVYACEVTHQGLSSPVTKSFNRGEC
IC50 (SARS-CoV-2 RBD protein [1]): 0.0148 nM | IC50 (SARS-CoV-2 RBD protein [2]): 0.0083 nM

B10: QB-FE mIg-TD Quad (VHH)
VHH: QVQLVESGGGSVQAGGSLRLSCAASGTIAHIKYLGWFRQAPGKEREGVAALMTKWGQTYYADSVKGRFTVSLDNAKNTVYLQMNSLKPEDTALYYCAAASYGANFPLKASDYSYWGQGTQVTVSS
notes: as m58
IC50 (SARS-CoV-2 RBD protein [3]): 0.08 nM

B11: Q185B (tandem GB VHH-hinge-TD) (VHH)
chain: QVQLQESGGGLVQAGGSLRLSCAASGRTFSEYAMGWFRQAPGKEREFVATISWSGGSTYYTDSVKGRFTISRDNAKNTVYLQMNSLKPDDTAVYYCAAAGLGTVVSEWDYDYDYWGQGTQVTVSSGGSGGSQVQLQESGGGLVQAGGSLRLSCAASGRTFSEYAMGWFRQAPGKEREFVATISWSGGSTYYTDSVKGRFTISRDNAKNTVYLQMNSLKPDDTAVYYCAAAGLGTVVSEWDYDYDYWGQGTQVTVSSGGGGSGGGGSEPKSCDKTHTCPPCPAPELLGGKKKPLDGEYFTLQIRGRERFEMFRELNEALELKDAQAGKEPG
IC50 (SARS-CoV-2 RBD protein [4]): 0.03 pM

B12: QB-FE VHH (monovalent) (VHH)
VHH: QVQLVESGGGSVQAGGSLRLSCAASGTIAHIKYLGWFRQAPGKEREGVAALMTKWGQTYYADSVKGRFTVSLDNAKNTVYLQMNSLKPEDTALYYCAAASYGANFPLKASDYSYWGQGTQVTVS
binding result (SARS-CoV-2 RBD protein [5]): no binding (tested: 100 nM)

From patent US20230250156A1 (QUADRUCEPT BIO, published 2023)
